Measurements from PMC7770097 (Biochimica et biophysica acta. Proteins and proteomics, 2020).

Tests used:
[1] = target: human uPA (form not stated) (human, UniProt P00749); test: ELISA
[2] = target: full-length uPA (human urokinase plasminogen activator) (Homo sapiens, UniProt P00749, biotin (biotinylated antigen on streptavidin biosensors)); test: BLI

B1: AB2 Fab (Fab, V domains shown)
VH: QLTQSGGGLVKPGRSLRLSCTASGFTFGDYAMSWVRQAPGKGLEWVGFVRSESAGATTEYAASVKGRFTISRDDSKSIAYLQMNALKTEDTAVYYCIRGANWNWGQGTLVTVSS
VL: EIVLTQSPLSLPVTPGEPASISCRSSQLMNRNGNNFLDWYLQKPGQSPQLLIYLGSNRAPGVPDRFSGSGSGTDFTLKISRVEAEDVGVYYCMARVEAPYSFGQGTKLEIR
binding result [1]: binds
binding result [2]: binds
